Experimental data: paper PMC8964759, “Exploring a blue-light-sensing transcription factor to double the peak productivity of oil in Nannochloropsis oceanica”

T1: MBP-NobZIP77 (Nannochloropsis oceanica, UniProt A0A8F2IEU3 1-466)
T1 sequence: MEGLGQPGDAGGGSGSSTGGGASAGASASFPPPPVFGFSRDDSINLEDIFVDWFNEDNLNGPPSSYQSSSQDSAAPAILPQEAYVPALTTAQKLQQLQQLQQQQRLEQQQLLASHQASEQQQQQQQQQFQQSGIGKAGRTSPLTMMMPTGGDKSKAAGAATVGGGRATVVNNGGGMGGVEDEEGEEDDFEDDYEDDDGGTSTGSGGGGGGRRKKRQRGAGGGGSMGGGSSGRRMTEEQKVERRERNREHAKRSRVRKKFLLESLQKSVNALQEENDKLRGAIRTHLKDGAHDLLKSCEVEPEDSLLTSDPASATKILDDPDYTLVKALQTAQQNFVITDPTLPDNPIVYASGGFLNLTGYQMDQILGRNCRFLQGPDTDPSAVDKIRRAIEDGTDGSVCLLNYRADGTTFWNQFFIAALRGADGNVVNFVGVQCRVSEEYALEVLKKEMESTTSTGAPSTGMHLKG

B1: g4867 (hsp70) control probe (dsDNA)
DNA 1: TGTGGGGCCTCAGATAAAGGTGCGGCACGTAGGGAGAGACATTG
DNA 2: CAATGTCTCTCCCTACGTGCCGCACCTTTATCTGAGGCCCCACA
B2: g3857 (TAG-lipase) promoter probe (dsDNA)
DNA 1: TGGGCTCGGACGCGACGCGGGCTTTGGGCTCGGACGCGACGCGGGCTT
DNA 2: AAGCCCGCGTCGCGTCCGAGCCCAAAGCCCGCGTCGCGTCCGAGCCCA
B3: g5641 (FAE) promoter probe (dsDNA)
DNA 1: TGGATTGATGGACGTGGAAGCAGCTGGATTGATGGACGTGGAAGCAGC
DNA 2: GCTGCTTCCACGTCCATCAATCCAGCTGCTTCCACGTCCATCAATCCA
B4: g9477 (actin) control probe (dsDNA)
DNA 1: TTCGATAAATGGGGCCGATAAGTGAGGGAAGATGATTTGAGTAAAGTA
DNA 2: TACTTTACTCAAATCATCTTCCCTCACTTATCGGCCCCATTTATCGAA
B5: g2171 (PAP) promoter probe (dsDNA)
DNA 1: ACCGCTCCTTACGTGGTTAACATCACCGCTCCTTACGTGGTTAACATC
DNA 2: GATGTTAACCACGTAAGGAGCGGTGATGTTAACCACGTAAGGAGCGGT
B6: g10411 (lipase; also written g10041) promoter probe (dsDNA)
DNA 1: TCCAACACGTCGGCCTCCCAAACGCAATTTTGAGGCATGGACGTGGAAAGGG
DNA 2: CCCTTTCCACGTCCATGCCTCAAAATTGCGTTTGGGAGGCCGACGTGTTGGA

Experiments:
MBP-NobZIP77 [1] = molecular target: T1, MBP-NobZIP77; assay: EMSA; LightShift Chemiluminescent EMSA kit binding buffer (composition, salt and pH not stated), 30 min; light series: 5 nM probe, 25 °C, 60 min, NobZIP77 1:2 dilutions from 24 mM (so in the source); 6% native PAGE at 4 °C; conditions: protein: recombinant; tags: MBP (pMAL-p4X); chain copies: 2; label: 5' biotin; blunt
MBP-NobZIP77 [2] = molecular target: T1, MBP-NobZIP77; assay: EMSA; shift reduced by 100-fold unlabeled promoter DNA; LightShift Chemiluminescent EMSA kit binding buffer (composition, salt and pH not stated), 30 min; light series: 5 nM probe, 25 °C, 60 min, NobZIP77 1:2 dilutions from 24 mM (so in the source); 6% native PAGE at 4 °C; conditions: protein: recombinant; tags: MBP (pMAL-p4X); chain copies: 2; label: 5' biotin; blunt

Binder | binding result (MBP-NobZIP77 [1]) | binding result (MBP-NobZIP77 [2])
B1 | no binding | –
B2 | – | binds
B3 | binds | –
B4 | no binding | –
B5 | binds | –
B6 | – | binds
